Reference: the supplement of paper PMC9170038

Legend:
[1] = test system: MS2 coat protein; assay: apparent KD of MS2 coat protein, switch OFF state (with FMN for OFF switches, without FMN for ON switches); designed switch direction (-1 OFF switch, 1 ON switch): 1; higher = weaker reporter binding; settings: FMN input: 0 or 200 uM; Eterna round: R93 (includes R88 designs)
Method in brief: (§1)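 Designed RNA switches were transcribed on-chip from Illumina sequencing clusters. SNAP-549-labelled MS2 coat protein was titrated onto them in twofold steps from 0.7 or 1.5 nM to 3 µM in 100 mM Tris-HCl pH 7.5, 80 mM KCl, 4 mM MgCl2, either without or with constant ligand. Apparent KD reflects the per-design median of normalised cluster binding-curve fits.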

[2] = test system: MS2 coat protein; assay: apparent KD of MS2 coat protein, switch ON state; designed switch direction (-1 OFF switch, 1 ON switch): 1; higher = weaker reporter binding; settings: FMN input: 0 or 200 uM; Eterna round: R93 (includes R88 designs)
Method in brief: as §1

Sequence | apparent KD of MS2 coat protein [1] [nM] | apparent KD of MS2 coat protein [2] [nM]
AUAAAACAUGAGGAUCACCCAUGUAGAAAUAUGGGAGGAUAUACGAAGACGAAAGUCGAAGUAGAAGGCCUAAAAG [Mat - Same State 1 - Meechl mod - D116] | 67.7 | 27.7
AUAAAACAUGAGGAUCACCCAUGUCCGACAAAUCAAGGAUAUGAGAGCCAAACCAGGCUGUUAGAAGGUGAAAGAA [Edorlebere] | 182 | 154
AUAAAACAUGAGGAUCACCCAUGUCCGACAAAUCAAGGAUAUGAUAGCCAAACCAGGCCGUUAGAAGGUGAAAGAA [Edgeza] | 147 | 276
AUAAAUAAAAGUGAGGAUAUCCAAAAAAAAACAUGAGGAUCACCCAUGUAAAAGAAAAUAAAAUGGGAGAAGGCACAAAAUAAAU [SS2 M 10] | 26.2 | 11.9
AUAAUAAUAAGGUAGGAUAUACUAAAGUAAACAUGAGGAUCACCCAUGUAAAGAAAAAAACUCAUGUAGAAGGGCCAGAAAUAAA [moonwalk 3] | 62.3 | 53.2
AUAAUACAUGAGGAUCACCCAUGUCAAGGCUAUCAAGGAUAUAGACAACGUAGCGGUUGACUAGAAGGUGAGAAAU [Onxeanis] | 78.8 | 124
AUAUGCAUAGACAAGGAUAUCGGUCUAGAAACAUGAGGAUCACCCAUGUAAGUGAAAAUCUGUAAUGAGAAGGUGUUGUUGGGUU [Isan] | 89.4 | 75
AUGAAAGUAACACAGGAUAUCGAGGAUACAACAUGAGGAUCACCCAUGUACAUACGAACGUAUAACGAGAAGGGUGGAUGAUCUUC [ss2] | 62.8 | 140
CAGGACAUAGGAUAGGAUAUAUGAAUAAUUACAUGAGGAUCACCCAUGUCCAUUUAUAUGGGAACAUAGAAGGGUUGUAGUUAUG [Mat - Same state - Malcolm Mod - D143] | 388 | 515
CCGAUACAUGAGGAUCACCCAUGUUAGGUAGAACAAGGAUAUCUAGAUAGAUAAAAAUAUAGAGAAGGUGUAUAAC [JR_SS001_Sub208] | 26 | 17.1
CCGAUGGUAUACUAGGAUAUGGGCGCCCUUACAUGAGGAUCACCCAUGUUAUCACAAAUCCGCGGCCAGAAGGAGUUCAUGGGAG [Ustiririra] | 151 | 62.8
CGAAAGGAGAGAGAGGAUAUCCAAAGGAAAACAUGAGGAUCACCCAUGUAGAAGGUAGGAGAUUGGGAGAAGGCUCAAGAGAGAC [salish99-ss2-148] | 48.2 | 24
CGGAGACAUGAGGAUCACCCAUGUGAGAAGAGGCGAGGAUAUUGAAAGAAAGAAGAGAAAUGAGAAGGCGCGAGCC [salish99-SS1-083] | 38.1 | 55.3
CGGCUAAACGGGCAGGAUAUGUUCACUAGAACAUGAGGAUCACCCAUGUGAAACUGGCGAUAAUCGCAGAAGGGCCCGUGCACGA [Atensoin] | 61.3 | 17.6
CGGCUACAUGAGGAUCACCCAUGUCAGCCGAGGGCAGGAUAUGUGGUUCAUUCUCAAGCAACAGAAGGGUCAAAAG [Istiacedi] | 18.7 | 16.9
GAAAAACAUGAGGAUCACCCAUGUAAUACAACAUCAGGAUAUUGAUUUUACUAUGUAUUGCAAGAAGGGAUGAAAG [Mat - Same State 1 - Hyphema mod - D100] | 42.6 | 57.2
GAAAAACAUGAGGAUCACCCAUGUAGAAAUAUGGGAGGAUAUACAAAGACGAAAGUCAAAGUAGAAGGCCUGAUAG [JL S1 M-MoE mod 3] | 79.2 | 28.6
GAAAAACAUGAGGAUCACCCAUGUAGAAAUAUGGGAGGAUAUACAAAGUCGAAAGACAAAGUAGAAGGCCUAAAAG [Mat - Same State 1 - Eli mod - D2] | 67.1 | 24.6
